From patent publication EP4687981A2 (dated 2026) come the findings set out here.

The test has as its target T1, human CDH11 on primary human fibroblast-like synoviocytes (FLS) (human, UniProt P55287 54-796).
T1 construct: whole, on cells; also called human FLS; human synoviocytes
T1 sequence (looked up): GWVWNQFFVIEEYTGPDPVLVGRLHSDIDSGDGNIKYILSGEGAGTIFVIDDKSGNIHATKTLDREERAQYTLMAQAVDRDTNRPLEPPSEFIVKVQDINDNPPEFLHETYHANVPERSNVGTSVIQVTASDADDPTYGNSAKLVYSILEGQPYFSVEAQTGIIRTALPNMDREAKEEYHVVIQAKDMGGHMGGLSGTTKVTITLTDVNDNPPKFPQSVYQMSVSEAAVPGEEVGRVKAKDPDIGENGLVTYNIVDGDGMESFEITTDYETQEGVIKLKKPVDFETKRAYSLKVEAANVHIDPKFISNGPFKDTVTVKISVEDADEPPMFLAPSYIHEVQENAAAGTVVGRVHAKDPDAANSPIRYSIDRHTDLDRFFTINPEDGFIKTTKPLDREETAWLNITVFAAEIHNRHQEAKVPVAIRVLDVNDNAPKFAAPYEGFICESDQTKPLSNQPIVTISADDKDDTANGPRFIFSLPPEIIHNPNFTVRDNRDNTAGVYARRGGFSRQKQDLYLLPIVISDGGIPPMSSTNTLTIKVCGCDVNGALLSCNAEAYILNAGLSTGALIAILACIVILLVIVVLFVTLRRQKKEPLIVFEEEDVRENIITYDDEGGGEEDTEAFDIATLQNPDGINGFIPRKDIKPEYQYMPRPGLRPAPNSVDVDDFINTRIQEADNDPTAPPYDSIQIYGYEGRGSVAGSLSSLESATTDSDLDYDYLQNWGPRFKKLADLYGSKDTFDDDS
Kind of test: flow cytometry, hybridoma supernatant on primary human FLS. For orientation: In flow cytometry, cells or beads pass a laser one at a time.

B1: anti-CDH11 antibody 10E1 (antibody, V domains shown)
VH: QVQLQQSGPGLVKPSQTLSLTCAISGDSVSSNSAAWNWIRQSPSRGLEWLGRTYYRSKWYNDYAVSVKSRITINPDTSKNQFSLQLNSMTPEDTAVYYCARATMVRGAFDYWGQGTLVTVSS
VL: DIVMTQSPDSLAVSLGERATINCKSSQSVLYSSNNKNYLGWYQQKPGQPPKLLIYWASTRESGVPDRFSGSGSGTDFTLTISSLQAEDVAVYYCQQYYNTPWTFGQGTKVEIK
notes: Monoclonal from a VelocImmune mouse hybridoma; It was detected with anti-mouse IgG Fc, so the constant regions are mouse; the isotype cannot be read in this copy; also called clone 10E1
In the case of B1, the binding result is reported as “binds”.
